{"source": "patent US20230139700A1", "about": "(BIO THERA SOLUTIONS, published 2023)", "binders": {"B1": {"name": "Antibody M-KF (antibody, human IgG1, kappa, V domains shown)", "VH": "QVQLVESGGGVVQPGESLRLSCAASGFTFSSYGMHWVRQAPGKGLEWVAVIWEDGSNQYYADSVKGRFTISRDNSKNTLYLQMNSLRAEDTAVYYCAKDNQDTSPDVGIDYWGQGTLVTVSS", "VL": "DIQMTQSPSSLSASVGDRVTITCRASQNISPFLNWYQQKPGKAPKLLIYAAVGLQSGVPSRFSGSGSGTDFTLTISSLQPEDFATYYCQQYTDYPLTFGGGTKVEIKR", "modifications": "fucose content about 0% (expressed in a CHO cell line with the fut8 gene knocked out)"}}, "key": {"human OX40 on cells [1]": {"target": "T1, human OX40 on cells (human, UniProt P43489 29-277)", "T1 construct": "whole, on cells; the cell is named under assay; also called hOX40; Jurkat-hOX40 cells", "T1 sequence (looked up)": "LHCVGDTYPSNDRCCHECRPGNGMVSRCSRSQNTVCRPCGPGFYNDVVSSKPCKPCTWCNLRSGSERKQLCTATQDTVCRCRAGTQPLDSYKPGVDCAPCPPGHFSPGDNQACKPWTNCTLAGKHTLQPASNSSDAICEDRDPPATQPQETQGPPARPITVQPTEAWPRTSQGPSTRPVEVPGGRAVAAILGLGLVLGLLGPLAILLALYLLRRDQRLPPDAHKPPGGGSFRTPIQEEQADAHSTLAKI", "assay": "flow cytometry (MFI) on Jurkat cells overexpressing OX40, antibody titration; the unit nM comes from the legend paragraph 95", "source_text": "(§1) Table 10 illustrates the CDRs of eight full antibodies containing these amino acid mutations, and the rest of the sequences are the same as those of antibody-F23-32K. […] The sequences of the anti-OX40 antibody (antibody M) are shown in Table 12; wherein, the expression cells used for the antibodies above (including antibody M) are CHO-S cells, and the method for preparing the antibody M-KF is as follows: the antibody M was identical to the antibody M-KF in terms of amino acid sequence and was expressed by the CHO cell line in which the fut8 gene was knocked out (the content of fucose in antibody M-KF was about 0%)."}, "human OX40 on cells [2]": {"target": "T1, human OX40 on cells", "assay": "flow cytometry (MFI) on Jurkat cells overexpressing OX40, antibody titration", "source_text": "as §1"}, "[3]": {"target": "T2, human OX40 (coated on the plate, Example 8) (human, UniProt P43489 29-214)", "T2 sequence (looked up)": "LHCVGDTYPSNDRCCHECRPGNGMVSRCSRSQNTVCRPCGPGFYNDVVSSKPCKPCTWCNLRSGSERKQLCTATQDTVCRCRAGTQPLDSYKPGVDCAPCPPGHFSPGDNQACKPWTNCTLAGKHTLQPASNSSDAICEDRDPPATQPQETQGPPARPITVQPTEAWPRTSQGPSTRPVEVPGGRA", "assay": "ELISA, OX40 coated at 2 µg/mL, antibody 2-fold dilutions; human OX40, not cynomolgus monkey OX40", "procedure": "(§2) The binding capacities of the antibody M-KF for human and cynomolgus monkey OX40 were determined by ELISA. The test method is as follows: human or cynomolgus monkey OX40 was coated on a plate and incubated overnight at 4° C. at a concentration of 2 μg/mL, and then incubated with antibody M-KF at different concentrations for detection. The antibody M-KF was 2-fold diluted in gradient from an initial concentration of 1 μg/mL or 2 μg/mL."}, "cynomolgus monkey OX40": {"target": "T3, cynomolgus monkey OX40 (cynomolgus monkey)", "T3 chain": "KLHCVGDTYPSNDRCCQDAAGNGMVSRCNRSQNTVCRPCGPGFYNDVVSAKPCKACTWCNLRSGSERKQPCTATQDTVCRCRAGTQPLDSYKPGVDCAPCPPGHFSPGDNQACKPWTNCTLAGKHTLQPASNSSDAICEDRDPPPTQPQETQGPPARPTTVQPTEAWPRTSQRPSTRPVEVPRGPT", "assay": "ELISA, OX40 coated at 2 µg/mL, antibody 2-fold dilutions", "procedure": "as §2"}, "human OX40 on cells [4]": {"target": "T1, human OX40 on cells", "assay": "cell-based or functional assay"}}}
{"binder": "B1", "values": [{"measurement": "EC50", "setting": "human OX40 on cells [1]", "value": 1.34, "unit": "nM"}, {"measurement": "EC50 (read off the curve)", "setting": "human OX40 on cells [2]", "value": "~1", "unit": "nM"}, {"measurement": "EC50", "setting": "[3]", "value": "~0.034", "unit": "ng/mL"}, {"measurement": "EC50", "setting": "cynomolgus monkey OX40", "value": "~0.0352", "unit": "ng/mL"}, {"measurement": "ADCC killing, fold against antibody M", "setting": "human OX40 on cells [4]", "value": "> 2", "unit": "fold"}, {"measurement": "EC50 of ADCC killing, PBMC effector cells against Jurkat-hOX40 target cells (25:1)", "setting": "human OX40 on cells [4]", "value": "~1.89", "unit": "ng/mL"}, {"measurement": "NFκB reporter in Jurkat-hOX40-NFκB-2 cells with Raji cells, activation peak against 11D4", "setting": "human OX40 on cells [4]", "value": "~2.5", "unit": "fold"}]}
